Data reported in paper PMC11201810 (Protein Science : A Publication of the Protein Society, 2024).
Values joined by “and” are separate entries in the source; they are usually repeats but may differ in a detail not shown here. Identical values can stand only once. Like-named read-outs stand apart in the source and are kept apart here.

Columns and labels:
[1] = molecular target: human βB2-crystallin W196F (human) (UniProt P43320); experiment: SEC
[2] = molecular target: human βB2-crystallin W196F (human) (UniProt P43320); experiment: AUC
SEC [3] = molecular target: the molecule itself; experiment: SEC
AUC = molecular target: the molecule itself; experiment: AUC
SEC [4] = molecular target: the molecule itself; experiment: SEC; remark: listed apart in the source

human βB2-crystallin W196F, sequence (P43320 whole entry, stated change not applied): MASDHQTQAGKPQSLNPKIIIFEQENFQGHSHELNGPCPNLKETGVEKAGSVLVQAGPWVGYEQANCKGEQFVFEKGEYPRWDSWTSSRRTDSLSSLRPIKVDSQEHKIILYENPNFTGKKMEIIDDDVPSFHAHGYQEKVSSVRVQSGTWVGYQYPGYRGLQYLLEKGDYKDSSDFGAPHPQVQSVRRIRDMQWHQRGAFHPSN

| stoichiometry N [1] | % dimer [2] [%] | % tetramer [2] [%] | Molecule | stoichiometry N (SEC [3]) | % dimer (AUC) [%] | % tetramer (AUC) [%] | stoichiometry N (SEC [4]) |
| --- | --- | --- | --- | --- | --- | --- | --- |
| 4 and 2 | 83.4 | 12.7 | human βB2-crystallin W196F (from UniProt P43320 1-205) (natural protein) |  |  |  |  |
|  |  |  | human βB2-crystallin W151F (natural protein, UniProt P43320 1-205, looked up) MASDHQTQAGKPQSLNPKIIIFEQENFQGHSHELNGPCPNLKETGVEKAGSVLVQAGPWVGYEQANCKGEQFVFEKGEYPRWDSWTSSRRTDSLSSLRPIKVDSQEHKIILYENPNFTGKKMEIIDDDVPSFHAHGYQEKVSSVRVQSGTFVGYQYPGYRGLQYLLEKGDYKDSSDFGAPHPQVQSVRRIRDMQWHQRGAFHPSN | 2 | 92.2 ± 0.5 | 2.7 ± 0.1 |  |
|  |  |  | human βB2-crystallin W82F (natural protein, UniProt P43320 1-205, looked up) MASDHQTQAGKPQSLNPKIIIFEQENFQGHSHELNGPCPNLKETGVEKAGSVLVQAGPWVGYEQANCKGEQFVFEKGEYPRFDSWTSSRRTDSLSSLRPIKVDSQEHKIILYENPNFTGKKMEIIDDDVPSFHAHGYQEKVSSVRVQSGTWVGYQYPGYRGLQYLLEKGDYKDSSDFGAPHPQVQSVRRIRDMQWHQRGAFHPSN | 2 and 4 | 75.5 ± 0.3 | 22.3 ± 0.2 |  |
|  |  |  | human βB2-crystallin W59F (natural protein, UniProt P43320 1-205, looked up) MASDHQTQAGKPQSLNPKIIIFEQENFQGHSHELNGPCPNLKETGVEKAGSVLVQAGPFVGYEQANCKGEQFVFEKGEYPRWDSWTSSRRTDSLSSLRPIKVDSQEHKIILYENPNFTGKKMEIIDDDVPSFHAHGYQEKVSSVRVQSGTWVGYQYPGYRGLQYLLEKGDYKDSSDFGAPHPQVQSVRRIRDMQWHQRGAFHPSN | 2 | 48.7 ± 0.3 | 36.1 ± 0.4 | 4 |
|  |  |  | human βB2-crystallin W85F (natural protein, UniProt P43320 1-205, looked up) MASDHQTQAGKPQSLNPKIIIFEQENFQGHSHELNGPCPNLKETGVEKAGSVLVQAGPWVGYEQANCKGEQFVFEKGEYPRWDSFTSSRRTDSLSSLRPIKVDSQEHKIILYENPNFTGKKMEIIDDDVPSFHAHGYQEKVSSVRVQSGTWVGYQYPGYRGLQYLLEKGDYKDSSDFGAPHPQVQSVRRIRDMQWHQRGAFHPSN | 2 and 4 | 79.7 ± 0.6 | 11.5 ± 0.6 |  |
